# Experimental data published in US20250002945, “NEW TALE PROTEIN SCAFFOLDS WITH IMPROVED ON-TARGET/OFF-TARGET ACTIVITY RATIOS” (CELLECTIS SA, published 2025).
# T1: CISH (1) right V2 TALEN (synthetic, UniProt Q56830 SEQ:15-719)
# T1 chain: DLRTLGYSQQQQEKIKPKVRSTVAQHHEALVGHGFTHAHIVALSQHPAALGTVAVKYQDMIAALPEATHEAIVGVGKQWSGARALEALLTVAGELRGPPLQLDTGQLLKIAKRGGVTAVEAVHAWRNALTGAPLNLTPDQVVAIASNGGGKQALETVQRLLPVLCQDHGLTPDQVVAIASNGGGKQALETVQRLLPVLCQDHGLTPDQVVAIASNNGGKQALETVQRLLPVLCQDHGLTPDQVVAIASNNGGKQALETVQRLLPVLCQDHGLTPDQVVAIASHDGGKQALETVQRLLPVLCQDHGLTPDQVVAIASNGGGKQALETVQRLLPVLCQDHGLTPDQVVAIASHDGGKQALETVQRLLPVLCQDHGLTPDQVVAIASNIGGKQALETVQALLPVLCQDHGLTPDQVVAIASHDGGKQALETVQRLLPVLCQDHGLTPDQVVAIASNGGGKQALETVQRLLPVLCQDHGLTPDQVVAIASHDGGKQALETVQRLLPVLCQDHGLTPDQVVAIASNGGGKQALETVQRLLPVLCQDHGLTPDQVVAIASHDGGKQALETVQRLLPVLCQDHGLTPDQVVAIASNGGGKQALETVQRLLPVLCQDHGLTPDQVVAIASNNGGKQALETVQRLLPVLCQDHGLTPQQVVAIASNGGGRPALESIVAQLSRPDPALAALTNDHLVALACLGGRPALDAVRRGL
# T2: CISH (3) left V2 TALEN (synthetic, UniProt Q56830 SEQ:15-719)
# T2 chain: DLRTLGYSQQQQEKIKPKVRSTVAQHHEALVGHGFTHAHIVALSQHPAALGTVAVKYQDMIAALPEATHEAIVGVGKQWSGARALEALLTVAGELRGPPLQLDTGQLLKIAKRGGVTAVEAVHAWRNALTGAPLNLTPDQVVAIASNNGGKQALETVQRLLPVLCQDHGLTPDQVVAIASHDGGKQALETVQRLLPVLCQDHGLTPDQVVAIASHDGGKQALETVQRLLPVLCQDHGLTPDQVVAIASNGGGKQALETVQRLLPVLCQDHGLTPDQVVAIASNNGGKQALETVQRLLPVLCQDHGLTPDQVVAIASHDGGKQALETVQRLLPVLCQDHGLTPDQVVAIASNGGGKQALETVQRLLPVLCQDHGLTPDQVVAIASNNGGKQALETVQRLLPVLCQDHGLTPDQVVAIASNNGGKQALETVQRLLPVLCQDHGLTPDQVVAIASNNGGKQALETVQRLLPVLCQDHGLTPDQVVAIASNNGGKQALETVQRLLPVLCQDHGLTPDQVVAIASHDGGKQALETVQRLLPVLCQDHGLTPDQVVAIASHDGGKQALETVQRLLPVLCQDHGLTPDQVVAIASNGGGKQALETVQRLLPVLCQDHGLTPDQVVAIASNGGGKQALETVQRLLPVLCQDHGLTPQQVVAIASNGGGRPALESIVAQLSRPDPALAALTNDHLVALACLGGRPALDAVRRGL
# T3: CISH (2) left V2 TALEN (synthetic, UniProt Q56830 SEQ:15-719)
# T3 chain: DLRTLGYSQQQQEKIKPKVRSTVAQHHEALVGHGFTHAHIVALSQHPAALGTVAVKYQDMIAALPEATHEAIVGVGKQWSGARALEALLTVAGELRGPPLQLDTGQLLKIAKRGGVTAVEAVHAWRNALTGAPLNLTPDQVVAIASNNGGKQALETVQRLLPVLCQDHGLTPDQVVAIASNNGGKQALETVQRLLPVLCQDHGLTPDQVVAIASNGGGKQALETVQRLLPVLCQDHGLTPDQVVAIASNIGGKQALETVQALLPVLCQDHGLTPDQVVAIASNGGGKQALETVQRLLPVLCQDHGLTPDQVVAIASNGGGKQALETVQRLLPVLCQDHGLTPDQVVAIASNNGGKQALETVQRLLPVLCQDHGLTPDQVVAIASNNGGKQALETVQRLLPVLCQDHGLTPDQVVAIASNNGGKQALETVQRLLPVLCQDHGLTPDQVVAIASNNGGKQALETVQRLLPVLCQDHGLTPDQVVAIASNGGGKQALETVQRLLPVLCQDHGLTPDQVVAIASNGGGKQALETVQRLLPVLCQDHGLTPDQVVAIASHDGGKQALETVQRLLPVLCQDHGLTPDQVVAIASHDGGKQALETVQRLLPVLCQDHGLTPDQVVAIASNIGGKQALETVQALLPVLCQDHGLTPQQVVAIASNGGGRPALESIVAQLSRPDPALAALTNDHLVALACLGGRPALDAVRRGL
# T4: CISH (2) right V2 TALEN (synthetic, UniProt Q56830 SEQ:15-719)
# T4 chain: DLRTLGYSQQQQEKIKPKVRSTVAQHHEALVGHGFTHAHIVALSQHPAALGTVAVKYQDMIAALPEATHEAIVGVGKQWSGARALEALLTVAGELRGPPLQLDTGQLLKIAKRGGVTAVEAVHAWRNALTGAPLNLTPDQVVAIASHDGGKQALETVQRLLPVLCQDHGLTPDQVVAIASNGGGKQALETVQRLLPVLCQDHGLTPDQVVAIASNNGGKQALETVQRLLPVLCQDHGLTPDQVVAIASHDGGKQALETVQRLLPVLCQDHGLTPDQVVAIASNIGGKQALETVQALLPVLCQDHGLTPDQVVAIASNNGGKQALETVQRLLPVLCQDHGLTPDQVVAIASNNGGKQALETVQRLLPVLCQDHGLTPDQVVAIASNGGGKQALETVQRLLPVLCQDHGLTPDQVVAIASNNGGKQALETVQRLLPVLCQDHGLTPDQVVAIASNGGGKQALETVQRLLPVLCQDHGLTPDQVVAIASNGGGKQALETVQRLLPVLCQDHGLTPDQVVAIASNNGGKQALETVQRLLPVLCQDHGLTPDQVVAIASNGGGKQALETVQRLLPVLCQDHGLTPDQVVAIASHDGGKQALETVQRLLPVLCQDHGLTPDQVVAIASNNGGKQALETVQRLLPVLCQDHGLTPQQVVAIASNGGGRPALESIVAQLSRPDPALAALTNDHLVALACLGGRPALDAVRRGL
# T5: TIGIT left V2 TALEN (synthetic, UniProt Q56830 SEQ:15-719)
# T5 chain: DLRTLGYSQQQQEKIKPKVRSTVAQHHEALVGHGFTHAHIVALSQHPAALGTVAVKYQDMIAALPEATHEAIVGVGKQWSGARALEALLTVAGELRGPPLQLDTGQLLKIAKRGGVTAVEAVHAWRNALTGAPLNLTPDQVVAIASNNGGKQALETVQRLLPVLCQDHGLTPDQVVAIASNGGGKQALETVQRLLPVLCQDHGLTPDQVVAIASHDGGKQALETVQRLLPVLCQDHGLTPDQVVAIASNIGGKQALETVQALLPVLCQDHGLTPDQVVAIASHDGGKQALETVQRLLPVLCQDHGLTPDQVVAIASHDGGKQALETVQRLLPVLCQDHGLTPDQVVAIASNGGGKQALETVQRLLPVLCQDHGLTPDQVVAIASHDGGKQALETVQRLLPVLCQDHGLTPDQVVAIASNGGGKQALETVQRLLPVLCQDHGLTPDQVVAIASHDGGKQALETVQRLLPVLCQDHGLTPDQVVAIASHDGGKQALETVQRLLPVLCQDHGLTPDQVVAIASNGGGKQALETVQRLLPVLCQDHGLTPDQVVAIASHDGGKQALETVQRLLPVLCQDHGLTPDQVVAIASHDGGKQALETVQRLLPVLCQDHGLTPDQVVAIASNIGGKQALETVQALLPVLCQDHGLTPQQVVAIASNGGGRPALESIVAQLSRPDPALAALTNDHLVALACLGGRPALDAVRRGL
# T6: TIGIT right V2 TALEN (synthetic, UniProt Q56830 SEQ:15-719)
# T6 chain: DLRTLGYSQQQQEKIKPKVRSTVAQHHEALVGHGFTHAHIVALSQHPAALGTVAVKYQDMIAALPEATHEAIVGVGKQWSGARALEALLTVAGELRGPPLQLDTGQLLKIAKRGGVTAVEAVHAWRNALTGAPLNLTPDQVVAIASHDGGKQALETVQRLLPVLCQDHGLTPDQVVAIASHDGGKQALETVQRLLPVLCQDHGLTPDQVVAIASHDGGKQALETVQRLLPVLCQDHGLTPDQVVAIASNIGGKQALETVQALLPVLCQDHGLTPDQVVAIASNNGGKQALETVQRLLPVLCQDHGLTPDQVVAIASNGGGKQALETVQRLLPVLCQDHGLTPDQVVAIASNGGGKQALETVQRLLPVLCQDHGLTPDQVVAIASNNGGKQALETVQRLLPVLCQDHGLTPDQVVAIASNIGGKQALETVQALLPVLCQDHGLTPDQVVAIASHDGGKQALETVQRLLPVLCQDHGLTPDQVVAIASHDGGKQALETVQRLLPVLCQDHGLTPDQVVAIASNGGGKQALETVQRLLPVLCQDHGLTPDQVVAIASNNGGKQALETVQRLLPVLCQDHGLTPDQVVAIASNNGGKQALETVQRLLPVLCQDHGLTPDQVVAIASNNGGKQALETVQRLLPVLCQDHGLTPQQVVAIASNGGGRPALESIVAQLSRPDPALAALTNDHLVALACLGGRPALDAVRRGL
# T7: CISH (1) left V2 TALEN (synthetic, UniProt Q56830 SEQ:15-719)
# T7 chain: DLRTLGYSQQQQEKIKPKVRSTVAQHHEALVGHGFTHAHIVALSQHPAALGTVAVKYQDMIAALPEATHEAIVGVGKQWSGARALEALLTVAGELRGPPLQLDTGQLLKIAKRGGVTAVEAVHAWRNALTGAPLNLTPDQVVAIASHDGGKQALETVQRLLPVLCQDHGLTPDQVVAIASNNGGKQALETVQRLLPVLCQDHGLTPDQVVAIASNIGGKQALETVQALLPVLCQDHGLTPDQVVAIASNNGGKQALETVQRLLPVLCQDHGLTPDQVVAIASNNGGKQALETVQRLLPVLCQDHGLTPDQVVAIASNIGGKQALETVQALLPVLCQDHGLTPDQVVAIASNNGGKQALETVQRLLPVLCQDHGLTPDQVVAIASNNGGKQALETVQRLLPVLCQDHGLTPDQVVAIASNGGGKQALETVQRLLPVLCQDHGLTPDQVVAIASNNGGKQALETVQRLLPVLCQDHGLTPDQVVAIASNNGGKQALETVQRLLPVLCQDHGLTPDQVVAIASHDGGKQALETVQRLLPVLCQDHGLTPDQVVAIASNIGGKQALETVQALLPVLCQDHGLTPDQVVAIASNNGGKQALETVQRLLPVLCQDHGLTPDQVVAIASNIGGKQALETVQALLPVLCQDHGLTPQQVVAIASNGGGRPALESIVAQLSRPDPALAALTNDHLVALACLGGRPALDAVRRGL
# B1: CISH (1) right half-site (dsDNA)
# DNA 1: ACAGAGAGTGAGCCAAA
# DNA 2: TTTGGCTCACTCTCTGT
# B2: CISH (3) left half-site (dsDNA)
# DNA 1: TGCCTGCTGGGGCCTTC
# DNA 2: GAAGGCCCCAGCAGGCA
# B3: CISH (2) left half-site (dsDNA)
# DNA 1: TGGTATTGGGGTTCCAT
# DNA 2: ATGGAACCCCAATACCA
# B4: CISH (2) right half-site (dsDNA)
# DNA 1: CCGACAACACCTGCAGA
# DNA 2: TCTGCAGGTGTTGTCGG
# B5: TIGIT left half-site (dsDNA)
# DNA 1: TGTCACCTCTCCTCCAC
# DNA 2: GTGGAGGAGAGGTGACA
# B6: TIGIT right half-site (dsDNA)
# DNA 1: ACCCAGGTCAACTGGGA
# DNA 2: TCCCAGTTGACCTGGGT
# B7: CISH (1) left half-site (dsDNA)
# DNA 1: TCGAGGAGGTGGCAGAG
# DNA 2: CTCTGCCACCTCCTCGA
# Columns and labels:
# Experiment in all cases: cell_activity; T cells, mostly above 70%
# Conditions in all cases: tags: SV40 NLS; FokI fusion
# CISH (1) right V2 TALEN = target: T1, CISH (1) right V2 TALEN
# CISH (3) left V2 TALEN = target: T2, CISH (3) left V2 TALEN
# CISH (2) left V2 TALEN = target: T3, CISH (2) left V2 TALEN
# CISH (2) right V2 TALEN = target: T4, CISH (2) right V2 TALEN
# TIGIT left V2 TALEN = target: T5, TIGIT left V2 TALEN
# TIGIT right V2 TALEN = target: T6, TIGIT right V2 TALEN
# CISH (1) left V2 TALEN = target: T7, CISH (1) left V2 TALEN
binder,measurement,setting,value
B1,activity,CISH (1) right V2 TALEN,> 50 % indels
B2,activity,CISH (3) left V2 TALEN,> 50 % indels
B3,activity,CISH (2) left V2 TALEN,> 50 % indels
B4,activity,CISH (2) right V2 TALEN,> 50 % indels
B5,activity,TIGIT left V2 TALEN,> 50 % indels
B6,activity,TIGIT right V2 TALEN,> 50 % indels
B7,activity,CISH (1) left V2 TALEN,> 50 % indels
